Laboratory results taken from US20250197501A1.

Assays:
[1] = target: human B7-H3 on the surface of human cancer cells (human) (UniProt Q5ZPR3); assay: flow cytometry, A549 cells
[2] = target: human B7-H3 on the surface of human cancer cells (human) (UniProt Q5ZPR3); assay: flow cytometry, Huh7 cells
[3] = target: human B7-H3 on the surface of human cancer cells (human) (UniProt Q5ZPR3); assay: flow cytometry, PC-3 cells
[4] = target: human B7-H3 on the surface of human cancer cells (human) (UniProt Q5ZPR3); assay: flow cytometry, DU145 cells
[5] = target: human B7-H3 on the surface of human cancer cells (human) (UniProt Q5ZPR3); assay: flow cytometry, H1299 cells
[6] = target: human B7-H3 on the surface of human cancer cells (human) (UniProt Q5ZPR3); assay: flow cytometry, HA59T cells
[7] = target: human B7-H3 on the surface of human cancer cells (human) (UniProt Q5ZPR3); assay: flow cytometry, HepG2 cells
[8] = target: human B7-H3 on the surface of human cancer cells (human) (UniProt Q5ZPR3); assay: flow cytometry, LNCaP cells
[9] = target: human B7-H3 on the surface of human cancer cells (human) (UniProt Q5ZPR3); assay: flow cytometry, CAL 27 cells
[10] = target: human B7-H3 on the surface of human cancer cells (human) (UniProt Q5ZPR3); assay: flow cytometry, OECM-1 cells
[11] = target: human B7-H3 on the surface of human cancer cells (human) (UniProt Q5ZPR3); assay: flow cytometry, NCI-H520 cells
[12] = target: human B7-H3 on the surface of human cancer cells (human) (UniProt Q5ZPR3); assay: flow cytometry, Detroit 562 cells

Sequence of human B7-H3 on the surface of human cancer cells (human) (Q5ZPR3 29-534 limits assumed): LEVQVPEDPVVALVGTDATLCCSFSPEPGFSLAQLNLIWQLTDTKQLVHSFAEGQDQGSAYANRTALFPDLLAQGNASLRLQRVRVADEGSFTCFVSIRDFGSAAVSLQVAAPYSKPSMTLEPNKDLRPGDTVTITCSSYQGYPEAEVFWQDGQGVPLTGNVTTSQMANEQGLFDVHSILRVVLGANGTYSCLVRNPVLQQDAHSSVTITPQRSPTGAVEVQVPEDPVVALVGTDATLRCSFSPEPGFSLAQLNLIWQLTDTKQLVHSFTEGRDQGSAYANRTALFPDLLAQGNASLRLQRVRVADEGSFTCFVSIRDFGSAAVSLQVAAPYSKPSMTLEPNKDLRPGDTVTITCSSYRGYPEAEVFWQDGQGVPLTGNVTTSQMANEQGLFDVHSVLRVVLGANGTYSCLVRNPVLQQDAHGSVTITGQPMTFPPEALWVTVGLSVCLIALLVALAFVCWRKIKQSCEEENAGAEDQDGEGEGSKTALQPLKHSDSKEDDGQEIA

MFI value [1]: < 600 MFI | MFI value [2]: < 600 MFI | MFI value [3]: < 600 MFI | MFI value [4]: < 600 MFI | MFI value [5]: < 600 MFI | MFI value [6]: < 600 MFI | MFI value [7]: < 600 MFI | MFI value [8]: < 600 MFI | MFI value [9]: < 600 MFI | MFI value [10]: < 600 MFI | MFI value [11]: < 600 MFI | MFI value [12]: < 600 MFI
Substance: IgG (isotype control antibody)
